These results are taken from patent publication US20160264651A1 (Hoffmann-La Roche, published 2016).

Changes are numbered by the printed parent chain.

Experiment [1] concerns the target T1, TNC Fn5-A1-murineA2-A3 antigen construct (murine TNC A2 domain in the context of domains A1 and A3), E. … (human; murine, UniProt P24821 991-1075; Q80YX1 1076-1257; P24821 1258-1350, limits assumed, biotinylated).
T1 construct: domain: fifth fibronectin type III domain (Fn5);domain: A1 and A2 domain;domain: A3 domain; also called Immob E. coli Ag
T1 sequence (looked up): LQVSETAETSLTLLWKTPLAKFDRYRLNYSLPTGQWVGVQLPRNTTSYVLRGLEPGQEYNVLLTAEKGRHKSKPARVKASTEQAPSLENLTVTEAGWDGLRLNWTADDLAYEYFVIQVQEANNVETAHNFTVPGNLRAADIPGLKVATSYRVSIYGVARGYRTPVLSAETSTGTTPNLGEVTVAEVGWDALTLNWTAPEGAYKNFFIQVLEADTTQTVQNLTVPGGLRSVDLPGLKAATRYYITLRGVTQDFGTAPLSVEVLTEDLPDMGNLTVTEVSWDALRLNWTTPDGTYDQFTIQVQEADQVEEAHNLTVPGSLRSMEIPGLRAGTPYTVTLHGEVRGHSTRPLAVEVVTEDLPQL
In words: SPR, Biacore T100, biotinylated antigen on streptavidin chip, Fab as analyte. The protocol:
(§1) The affinity of the TNC A2 2B10 Fab fragment as well as of the human IgG1 converted TNC A2 2B10 antibody was subsequently determined and confirmed for human, murine and cynomolgus TNC A2 domain by surface plasmon resonance using a BIACORE® T100 machine (GE Healthcare) at 25° C. For this purpose the biotinylated antigens (expressed in E. coli, antigen in context but not glycosylated) were immobilized on a streptavidin chip and the constructs were used as analytes. For immobilization the antigens were diluted with HBS-EP+ (GE Healthcare, 10 mM HEPES, 150 mM NaCl, 3 mM EDTA, 0.05% Surfactant P20, pH 7.4) to 0.1 μg/ml before injection at a flow rate of 10 μl/minute to achieve approximately 80 response units (RU) of coupled protein. The TNC A2 domain from man, mouse and cynomolgus monkey was expressed in the context of the domains A1 and A3. The antigen constructs comprising the fifth fibronectin type III domain of human TNC (Fn5), the A1 and A2 domain of either human, murine or cynomolgus TNC, and the A3 domain of human TNC (TNC Fn5-A1-human/murine/cynoA2-A3) are shown in SEQ ID NOs 99-104.
(§2) For kinetics measurements, two-fold serial dilutions of Fab fragments (range between 1.56 nM to 100 nM) or IgG (range between 0.39 nM to 25 nM) were injected in HBS-EP+ at 25° C. at a flow rate of 50 μl/min. Association and dissociation times were 180 s and a regeneration with 10 mM glycine pH 1.5 for 60 s was performed between cycles. Association rates (kₒₙ) and dissociation rates (koff) were calculated using a simple one-to-one Langmuir binding model (BIACORE® T100 Evaluation Software version 1.1.1) by simultaneously fitting the association and dissociation sensorgrams. The equilibrium dissociation constant (KD) was calculated as the ratio koff/kₒₙ. See, e.g., Chen et al., J Mol Biol 293, 865-881 (1999)
In general terms: In SPR one partner is held on a chip, and binding of the other changes the refractive index at the surface.

Experiment [2] has as its target T2, TNC Fn5-A1-humanA2-A3 antigen construct (human TNC A2 domain in the context of domains A1 and A3), E. … (human, UniProt P24821 991-1075; P24821 1076-1257; P24821 1258-1350, limits assumed, biotinylated).
T2 construct: domain: fifth fibronectin type III domain (Fn5);domain: A1 and A2 domain;domain: A3 domain; Not glycosylated; also called Immob E. coli Ag
T2 sequence (looked up): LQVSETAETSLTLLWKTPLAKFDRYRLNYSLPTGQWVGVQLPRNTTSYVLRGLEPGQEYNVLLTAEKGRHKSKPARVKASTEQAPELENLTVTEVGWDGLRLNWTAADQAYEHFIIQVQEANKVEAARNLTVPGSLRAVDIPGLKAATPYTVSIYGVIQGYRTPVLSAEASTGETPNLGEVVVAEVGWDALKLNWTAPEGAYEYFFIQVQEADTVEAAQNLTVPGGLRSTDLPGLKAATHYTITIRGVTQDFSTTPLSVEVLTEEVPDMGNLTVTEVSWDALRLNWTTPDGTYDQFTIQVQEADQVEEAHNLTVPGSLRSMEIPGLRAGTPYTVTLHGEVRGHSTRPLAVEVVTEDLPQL
The description is as above. The protocol: as §1, §2

For experiment [3], the target named is T3, TNC Fn5-A1-cynoA2-A3 antigen construct (cynomolgus TNC A2 domain in the context of domains A1 and A3), E. … (human; cynomolgus, UniProt P24821 991-1075; P24821 1258-1350).
T3 construct: also called Cyno TNC; Immob E. coli Ag
The experiment is described as above. Here is the method: as §1, §2

For experiment [4], the target named is T4, E. coli-expressed human TNC A2 with C-terminal avi-tag and 6xHis-tag, biotinylated (human, biotinylated in vivo upon expression (avi-tag)).
T4 construct: Used for the selections and ELISA; also called hu TNC A2; biotinylated human TNC A2
T4 chain: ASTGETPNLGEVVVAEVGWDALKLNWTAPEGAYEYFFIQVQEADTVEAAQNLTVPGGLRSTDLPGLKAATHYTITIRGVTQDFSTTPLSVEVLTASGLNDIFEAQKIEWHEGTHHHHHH
The experiment is described as follows: ELISA, biotinylated human TNC-A2 on neutravidin plates, Fab supernatants detected by anti-Flag/HRP. The protocol:
Selections were carried out over 3 rounds using constant antigen concentrations at 100 nM. In round 2, capture of antigen:phage complexes was performed on neutravidin plates instead of streptavidin beads. Specific binders were identified by ELISA as follows using: 100 μl of 100 nM biotinylated human TNC-A2 was coated in each well of neutravidin plates. Fab-containing bacterial supernatants were added and binding Fabs were detected via their Flag-tags by using an anti-Flag/HRP secondary antibody. Once identified, clone 2B10 was bacterially expressed in a 0.5 litre culture volume, affinity purified and further characterized by SPR-analysis using BIACORE T100. See SEQ ID NOs: 56 and 60.

Experiment [5] concerns the target T1, TNC Fn5-A1-murineA2-A3 antigen …. In words: SPR, Biacore T100, biotinylated antigen on streptavidin chip, IgG as analyte (avidity). The protocol: as §1, §2
Experiment [6] deals with T2, TNC Fn5-A1-humanA2-A3 antigen construct …. The description is as above. The protocol:
as §1, §2

The target of experiment [7] is T3, TNC Fn5-A1-cynoA2-A3 antigen construct …. The experiment is described as above. Here is the method: as §1, §2
Experiment [8] deals with T4, E. coli-expressed human TNC A2 with …. The experiment is described as follows: selection on human TNC A2, ELISA and ProteOn screening. Here is the method: Selections were carried out against E. coli expressed human TNC A2 which was cloned upstream an avi-tag and 6×his-tag (see SEQ ID NO: 97). The antigen was biotinylated in vivo upon expression. Selections have been carried out in solution as described for the primary TNC A2 selections using decreasing concentrations of human TNC A2 ranging from 100 to 2 nM. After identification of affinity-matured clones by ELISA, secondary screenings were carried out using a ProteOn XPR36 biosensor (Biorad) and kinetic rate constants and affinities were determined analyzing affinity-purified Fab preparations on the same instrument. KD was measured by surface plasmon resonance using a ProteOn XPR36 machine (Biorad) at 25° C. with antigens immobilized on NLC sensor chips (Biorad). Briefly, recombinant antigen was diluted to 10 μg/ml in PBS/0.005% Tween-20, pH 7.4 and injected at […] for 100 to 300 s to achieve approximately 200-800 response units (RU) of coupled antigen. […] Association rates (kₒₙ) and dissociation rates (koff) were calculated using a simple one-to-one Langmuir binding model (ProteOn manager software version 2.1) by simultaneously fitting the association and dissociation sensorgrams. The equilibrium dissociation constant (KD) is calculated as the ratio koff/kₒₙ.
(In an ELISA, binding on a coated surface is turned into a signal by an enzyme label.)

B1: 2B10 anti-TNC A2 Fab fragment (parental clone 2B10) (Fab, V domains shown)
VH: QVQLVQSGAEVKKPGSSVKVSCKASGGTFSSYAISWVRQAPGQGLEWMGGIIPIFGTANYAQKFQGRVTITADKSTSTAYMELSSLRSEDTAVYYCARLYGYAYYGAFDYWGQGTTVTVSS
VL: DIQMTQSPSSLSASVGDRVTITCRASQGIRNDLGWYQQKPGKAPKRLIYAASSLQSGVPSRFSGGGSGTEFTLTISSLQPEDFATYYCLQNGLQPATFGQGTKVEIK
notes: also called TNC A2 2B10 Fab fragment; Fab fragment 2B10
Take B1: the Kd in experiment [1] was 180 nM; in experiment [2], 1.8 nM; in experiment [3], 17 nM. In addition, the binding result in experiment [4] is reported as “binds”.

B2: 2B10 anti-TNC A2 human IgG1 antibody (wild-type, non-glycoengineered) (antibody, V domains shown)
VH: B1 VH
VL: B1 VL
notes: also called IgG 2B10; 2B10 human IgG
For the molecule B2, the Kd in experiment [5] came out at 1.9 nM; in experiment [6] it was 0.29 nM; in experiment [7], 0.21 nM.

B3: 2B10_D1A2 affinity-matured anti-TNC A2 Fab clone (Fab, V domains shown)
VH: B1 VH
VL: B1 VL with D32V, A50D, S52Y
notes: From the VL sub-library; No KD is printed for this clone; also called clone 2B10_D1A2
B3: the binding result in experiment [8] was “binds”.
